We go through four molecules from publication PMC4769319, “Cohesin Releases DNA through Asymmetric ATPase-Driven Ring Opening” (Molecular Cell, 2016).

The assay addresses T1, full-length StrepII-Smc3 (wild-type) (S. cerevisiae, UniProt P47037 1-1230).
T1 construct: Smc3, S. cerevisiae, full length; source: Sf9 insect cells, expressed alone, purified (Strep-II tag purification, size-exclusion chromatography)
T1 sequence (looked up): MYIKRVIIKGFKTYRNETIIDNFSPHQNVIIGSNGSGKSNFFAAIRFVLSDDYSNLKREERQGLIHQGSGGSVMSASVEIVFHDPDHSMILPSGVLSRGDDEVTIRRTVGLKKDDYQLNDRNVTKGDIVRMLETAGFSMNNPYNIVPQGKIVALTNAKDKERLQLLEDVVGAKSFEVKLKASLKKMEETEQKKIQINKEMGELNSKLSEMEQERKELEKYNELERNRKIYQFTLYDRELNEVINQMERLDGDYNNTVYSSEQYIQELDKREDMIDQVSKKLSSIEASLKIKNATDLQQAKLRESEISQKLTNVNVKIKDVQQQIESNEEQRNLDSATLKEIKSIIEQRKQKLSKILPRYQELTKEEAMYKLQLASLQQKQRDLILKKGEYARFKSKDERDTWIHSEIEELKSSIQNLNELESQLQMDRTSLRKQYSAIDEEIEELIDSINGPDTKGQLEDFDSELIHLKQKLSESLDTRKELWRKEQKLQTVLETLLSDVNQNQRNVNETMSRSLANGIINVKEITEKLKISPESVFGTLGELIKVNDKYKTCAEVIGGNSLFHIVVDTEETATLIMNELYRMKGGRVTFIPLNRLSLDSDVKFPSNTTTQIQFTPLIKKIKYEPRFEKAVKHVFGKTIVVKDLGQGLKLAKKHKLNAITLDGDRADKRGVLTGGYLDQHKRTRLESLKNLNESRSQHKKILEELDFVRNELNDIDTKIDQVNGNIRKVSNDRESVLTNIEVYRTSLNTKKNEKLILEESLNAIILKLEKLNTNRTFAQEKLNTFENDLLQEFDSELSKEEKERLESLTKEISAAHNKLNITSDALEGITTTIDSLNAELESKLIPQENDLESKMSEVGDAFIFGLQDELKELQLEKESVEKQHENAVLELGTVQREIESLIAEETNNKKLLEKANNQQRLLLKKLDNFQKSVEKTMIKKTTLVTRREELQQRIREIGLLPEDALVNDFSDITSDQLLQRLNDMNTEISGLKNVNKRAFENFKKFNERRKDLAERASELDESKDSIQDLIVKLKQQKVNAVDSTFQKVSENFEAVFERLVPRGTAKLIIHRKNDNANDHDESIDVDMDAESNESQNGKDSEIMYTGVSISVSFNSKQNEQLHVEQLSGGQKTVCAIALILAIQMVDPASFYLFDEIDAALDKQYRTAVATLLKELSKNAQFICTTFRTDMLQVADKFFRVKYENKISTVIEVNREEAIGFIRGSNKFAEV
The experiment in a line: scanning force microscopy; full-length Smc1 co-incubated with full-length Smc3 in the presence of ATP, seeded on mica; V shapes and ring shapes counted as heterodimers. Particulars: both partners purified.

B1: full-length HIS6-Smc1 (wild-type) (natural protein, S. cerevisiae, UniProt P32908 1-1225, looked up)
chain: MGRLVGLELSNFKSYRGVTKVGFGESNFTSIIGPNGSGKSNMMDAISFVLGVRSNHLRSNILKDLIYRGVLNDENSDDYDNEGAASSNPQSAYVKAFYQKGNKLVELMRIISRNGDTSYKIDGKTVSYKDYSIFLENENILIKAKNFLVFQGDVEQIAAQSPVELSRMFEEVSGSIQYKKEYEELKEKIEKLSKSATESIKNRRRIHGELKTYKEGINKNEEYRKQLDKKNELQKFQALWQLYHLEQQKEELTDKLSALNSEISSLKGKINNEMKSLQRSKSSFVKESAVISKQKSKLDYIFKDKEKLVSDLRLIKVPQQAAGKRISHIEKRIESLQKDLQRQKTYVERFETQLKVVTRSKEAFEEEIKQSARNYDKFKLNENDLKTYNCLHEKYLTEGGSILEEKIAVLNNDKREIQEELERFNKRADISKRRITEELSITGEKLDTQLNDLRVSLNEKNALHTERLHELKKLQSDIESANNQEYDLNFKLRETLVKIDDLSANQRETMKERKLRENIAMLKRFFPGVKGLVHDLCHPKKEKYGLAVSTILGKNFDSVIVENLTVAQECIAFLKKQRAGTASFIPLDTIETELPTLSLPDSQDYILSINAIDYEPEYEKAMQYVCGDSIICNTLNIAKDLKWKKGIRGKLVTIEGALIHKAGLMTGGISGDANNRWDKEEYQSLMSLKDKLLIQIDELSNGQRSNSIRAREVENSVSLLNSDIANLRTQVTQQKRSLDENRLEIKYHNDLIEKEIQPKITELKKKLDDLENTKDNLVKEKEALQNNIFKEFTSKIGFTIKEYENHSGELMRQQSKELQQLQKQILTVENKLQFETDRLSTTQRRYEKAQKDLENAQVEMKSLEEQEYAIEMKIGSIESKLEEHKNHLDELQKKFVTKQSELNSSEDILEDMNSNLQVLKRERDGIKEDIEKFDLERVTALKNCKISNINIPISSETTIDDLPISSTDNEAITISNSIDINYKGLPKKYKENNTDSARKELEQKIHEVEEILNELQPNARALERYDEAEGRFEVINNETEQLKAEEKKILNQFLKIKKKRKELFEKTFDYVSDHLDAIYRELTKNPNSNVELAGGNASLTIEDEDEPFNAGIKYHATPPLKRFKDMEYLSGGEKTVAALALLFAINSYQPSPFFVLDEVDAALDITNVQRIAAYIRRHRNPDLQFIVISLKNTMFEKSDALVGVYRQQQENSSKIITLDLSNYAE
notes: Smc1, S. cerevisiae, full length; Always co-expressed and co-purified with StrepII-Scc1-C; vector pFastBac NKI-LIC; details in Supplemental Experimental Procedures; not shown: His6, N-terminal, kept
On to B1, for which the binding result was “binds”.

B2: full-length HIS6-Smc1 L1129V (natural protein, S. cerevisiae, UniProt P32908 1-1225, looked up)
chain: MGRLVGLELSNFKSYRGVTKVGFGESNFTSIIGPNGSGKSNMMDAISFVLGVRSNHLRSNILKDLIYRGVLNDENSDDYDNEGAASSNPQSAYVKAFYQKGNKLVELMRIISRNGDTSYKIDGKTVSYKDYSIFLENENILIKAKNFLVFQGDVEQIAAQSPVELSRMFEEVSGSIQYKKEYEELKEKIEKLSKSATESIKNRRRIHGELKTYKEGINKNEEYRKQLDKKNELQKFQALWQLYHLEQQKEELTDKLSALNSEISSLKGKINNEMKSLQRSKSSFVKESAVISKQKSKLDYIFKDKEKLVSDLRLIKVPQQAAGKRISHIEKRIESLQKDLQRQKTYVERFETQLKVVTRSKEAFEEEIKQSARNYDKFKLNENDLKTYNCLHEKYLTEGGSILEEKIAVLNNDKREIQEELERFNKRADISKRRITEELSITGEKLDTQLNDLRVSLNEKNALHTERLHELKKLQSDIESANNQEYDLNFKLRETLVKIDDLSANQRETMKERKLRENIAMLKRFFPGVKGLVHDLCHPKKEKYGLAVSTILGKNFDSVIVENLTVAQECIAFLKKQRAGTASFIPLDTIETELPTLSLPDSQDYILSINAIDYEPEYEKAMQYVCGDSIICNTLNIAKDLKWKKGIRGKLVTIEGALIHKAGLMTGGISGDANNRWDKEEYQSLMSLKDKLLIQIDELSNGQRSNSIRAREVENSVSLLNSDIANLRTQVTQQKRSLDENRLEIKYHNDLIEKEIQPKITELKKKLDDLENTKDNLVKEKEALQNNIFKEFTSKIGFTIKEYENHSGELMRQQSKELQQLQKQILTVENKLQFETDRLSTTQRRYEKAQKDLENAQVEMKSLEEQEYAIEMKIGSIESKLEEHKNHLDELQKKFVTKQSELNSSEDILEDMNSNLQVLKRERDGIKEDIEKFDLERVTALKNCKISNINIPISSETTIDDLPISSTDNEAITISNSIDINYKGLPKKYKENNTDSARKELEQKIHEVEEILNELQPNARALERYDEAEGRFEVINNETEQLKAEEKKILNQFLKIKKKRKELFEKTFDYVSDHLDAIYRELTKNPNSNVELAGGNASLTIEDEDEPFNAGIKYHATPPLKRFKDMEYVSGGEKTVAALALLFAINSYQPSPFFVLDEVDAALDITNVQRIAAYIRRHRNPDLQFIVISLKNTMFEKSDALVGVYRQQQENSSKIITLDLSNYAE
notes: Smc1, S. cerevisiae, full length, Signature motif mutant; Co-purified with StrepII-Scc1-C; also called Signature motif mutant L1129V; not shown: His6, N-terminal, kept
As to B2, the binding result is listed as “binds”.

B3: full-length HIS6-Smc1 D1164E (natural protein, S. cerevisiae, UniProt P32908 1-1225, looked up)
chain: MGRLVGLELSNFKSYRGVTKVGFGESNFTSIIGPNGSGKSNMMDAISFVLGVRSNHLRSNILKDLIYRGVLNDENSDDYDNEGAASSNPQSAYVKAFYQKGNKLVELMRIISRNGDTSYKIDGKTVSYKDYSIFLENENILIKAKNFLVFQGDVEQIAAQSPVELSRMFEEVSGSIQYKKEYEELKEKIEKLSKSATESIKNRRRIHGELKTYKEGINKNEEYRKQLDKKNELQKFQALWQLYHLEQQKEELTDKLSALNSEISSLKGKINNEMKSLQRSKSSFVKESAVISKQKSKLDYIFKDKEKLVSDLRLIKVPQQAAGKRISHIEKRIESLQKDLQRQKTYVERFETQLKVVTRSKEAFEEEIKQSARNYDKFKLNENDLKTYNCLHEKYLTEGGSILEEKIAVLNNDKREIQEELERFNKRADISKRRITEELSITGEKLDTQLNDLRVSLNEKNALHTERLHELKKLQSDIESANNQEYDLNFKLRETLVKIDDLSANQRETMKERKLRENIAMLKRFFPGVKGLVHDLCHPKKEKYGLAVSTILGKNFDSVIVENLTVAQECIAFLKKQRAGTASFIPLDTIETELPTLSLPDSQDYILSINAIDYEPEYEKAMQYVCGDSIICNTLNIAKDLKWKKGIRGKLVTIEGALIHKAGLMTGGISGDANNRWDKEEYQSLMSLKDKLLIQIDELSNGQRSNSIRAREVENSVSLLNSDIANLRTQVTQQKRSLDENRLEIKYHNDLIEKEIQPKITELKKKLDDLENTKDNLVKEKEALQNNIFKEFTSKIGFTIKEYENHSGELMRQQSKELQQLQKQILTVENKLQFETDRLSTTQRRYEKAQKDLENAQVEMKSLEEQEYAIEMKIGSIESKLEEHKNHLDELQKKFVTKQSELNSSEDILEDMNSNLQVLKRERDGIKEDIEKFDLERVTALKNCKISNINIPISSETTIDDLPISSTDNEAITISNSIDINYKGLPKKYKENNTDSARKELEQKIHEVEEILNELQPNARALERYDEAEGRFEVINNETEQLKAEEKKILNQFLKIKKKRKELFEKTFDYVSDHLDAIYRELTKNPNSNVELAGGNASLTIEDEDEPFNAGIKYHATPPLKRFKDMEYLSGGEKTVAALALLFAINSYQPSPFFVLDEVDAALEITNVQRIAAYIRRHRNPDLQFIVISLKNTMFEKSDALVGVYRQQQENSSKIITLDLSNYAE
notes: Smc1, S. cerevisiae, full length, D-loop mutant; Co-purified with StrepII-Scc1-C; also called D-loop mutant D1164E; not shown: His6, N-terminal, kept
B3: the binding result is reported as “binds”.

B4: full-length HIS6-Smc1 K39I (natural protein, S. cerevisiae, UniProt P32908 1-1225, looked up)
chain: MGRLVGLELSNFKSYRGVTKVGFGESNFTSIIGPNGSGISNMMDAISFVLGVRSNHLRSNILKDLIYRGVLNDENSDDYDNEGAASSNPQSAYVKAFYQKGNKLVELMRIISRNGDTSYKIDGKTVSYKDYSIFLENENILIKAKNFLVFQGDVEQIAAQSPVELSRMFEEVSGSIQYKKEYEELKEKIEKLSKSATESIKNRRRIHGELKTYKEGINKNEEYRKQLDKKNELQKFQALWQLYHLEQQKEELTDKLSALNSEISSLKGKINNEMKSLQRSKSSFVKESAVISKQKSKLDYIFKDKEKLVSDLRLIKVPQQAAGKRISHIEKRIESLQKDLQRQKTYVERFETQLKVVTRSKEAFEEEIKQSARNYDKFKLNENDLKTYNCLHEKYLTEGGSILEEKIAVLNNDKREIQEELERFNKRADISKRRITEELSITGEKLDTQLNDLRVSLNEKNALHTERLHELKKLQSDIESANNQEYDLNFKLRETLVKIDDLSANQRETMKERKLRENIAMLKRFFPGVKGLVHDLCHPKKEKYGLAVSTILGKNFDSVIVENLTVAQECIAFLKKQRAGTASFIPLDTIETELPTLSLPDSQDYILSINAIDYEPEYEKAMQYVCGDSIICNTLNIAKDLKWKKGIRGKLVTIEGALIHKAGLMTGGISGDANNRWDKEEYQSLMSLKDKLLIQIDELSNGQRSNSIRAREVENSVSLLNSDIANLRTQVTQQKRSLDENRLEIKYHNDLIEKEIQPKITELKKKLDDLENTKDNLVKEKEALQNNIFKEFTSKIGFTIKEYENHSGELMRQQSKELQQLQKQILTVENKLQFETDRLSTTQRRYEKAQKDLENAQVEMKSLEEQEYAIEMKIGSIESKLEEHKNHLDELQKKFVTKQSELNSSEDILEDMNSNLQVLKRERDGIKEDIEKFDLERVTALKNCKISNINIPISSETTIDDLPISSTDNEAITISNSIDINYKGLPKKYKENNTDSARKELEQKIHEVEEILNELQPNARALERYDEAEGRFEVINNETEQLKAEEKKILNQFLKIKKKRKELFEKTFDYVSDHLDAIYRELTKNPNSNVELAGGNASLTIEDEDEPFNAGIKYHATPPLKRFKDMEYLSGGEKTVAALALLFAINSYQPSPFFVLDEVDAALDITNVQRIAAYIRRHRNPDLQFIVISLKNTMFEKSDALVGVYRQQQENSSKIITLDLSNYAE
notes: Smc1, S. cerevisiae, full length, Walker A mutant; Co-purified with StrepII-Scc1-C; also called Walker A mutant Smc1 K39I; not shown: His6, N-terminal, kept
Consider B4, for which the binding result is “binds”.
